Target: the molecule itself
Assay: SEC

B1: Plasmodium berghei phosphoglycolate phosphatase (PbPGP) (enzyme, P. berghei, UniProt A0A509AU59 1-322, looked up)
chain: MSLIVSEASQNNYFKDSENSYNSFMKEWKIEKRVNVKDLYQNFEVFFFDCDGVLWRGDTVINGAIEVINKLISDNKKVYFITNNSTKSRDTLLGKFHKLGFTCVKKEHIICTSYAIAKYFHSKEEYKSRKKKIYVIGEKGICDELDALNLVWLGSYKDNDKKVIIQDEGEIQIDNNIGAVVVAIDFNINYYKIQYAQLCINGLDAEFIVSNKDPLANFTSNQQWAGTGSIVASIEQVSFKKPKVLGKPNLFMIESVLKSLNIDLSKVVMIGDRLDTDIFFAQNCKIKSILVSTGVTDANVFLNHNNLNIKPDYFMKSILEFL
stoichiometry N: 2

From doi:10.1101/495473 (bioRxiv, 2018)
